Broadly, the stoichiometry N is a count of units in the complex or per binding partner. As a reminder, the Kd is the equilibrium constant for the complex coming apart. Higher therefore signals a looser complex.

Assay [1] concerns the target ACE2-COMP (human | rat) (UniProt Q9BYF1). The assay can be described thus: negative stain electron microscopy.
For assay [2], the target named is SARS-CoV-2 RBD (residues 319–541), Wuhan-Hu-1 (SARS-CoV-2) (UniProt P0DTC2). Kind of assay: BLI.

Take “ACE2-COMP (from UniProt Q9BYF1 19-615; P35444 29-73)”: the stoichiometry N in assay [1] was 5. Further, in assay [2], the Kd is less than 0.025 nM and the percent of bound ACE2 still attached after more than 8 h of dissociation is 90%.

The values above are taken from article PMC11862925.
